In patent US20120294797A1 (ALDERBIO, published 2012):
Positions count from the first letter of the chain named.

B1: Antibody Ab1 (antibody, human IgG1, kappa, N297A, V domains shown)
VH: QSLEESGGRLVTPGTPLTLTCTVSGLDLSSYYMQWVRQAPGKGLEWIGVIGINDNTYYASWAKGRFTISRASSTTVDLKMTSLTTEDTATYFCARGDIWGPGTLVTVSS
VL: QVLTQTASPVSAAVGSTVTINCQASQSVYDNNYLAWYQQKPGQPPKQLIYSTSTLASGVSSRFKGSGSGTQFTLTISDLECADAATYYCLGSYDCSSGDCFVFGGGTEVVVKR
notes: Chimeric (rabbit variable regions, human gamma-1 and kappa constant regions), full length
B2: Antibody Ab9 (antibody, human IgG1, kappa, N297A, V domains shown)
VH: QSLEESGGRLVTPGTPLTLTCTVSGIGLSSYYMQWVRQSPGRGLEWIGVIGSDGKTYYATWAKGRFTISKTSSTTVDLRMASLTTEDTATYFCTRGDIWGPGTLVTVSS
VL: B1 VL with A7P, S27N, D30N, K64R, L79V, E80Q, A82D, S97R
notes: as for B1
B3: Antibody Ab4 (antibody, human IgG1, kappa, N297A, V domains shown)
VH: B1 VH with T22S, L26I, S30G, Q34N, D54G, N55A, R70K, A71T
VL: QVLTQTPSPVSAAVGSTVTINCQASQSVYHNTYLAWYQQKPGQPPKQLIYDASTLASGVPSRFSGSGSGTQFTLTISGVQCNDAAAYYCLGSYDCTNGDCFVFGGGTEVVVKR
notes: as for B1
B4: Antibody Ab7 (antibody, human IgG1, kappa, N297A, V domains shown)
VH: QEQLKESGGRLVTPGTSLTLTCTVSGIDLSNHYMQWVRQAPGKGLEWIGVVGINGRTYYASWAKGRFTISRTSSTTVDLKMTRLTTEDTATYFCARGDIWGPGTLVTVSS
VL: B1 VL with D30N, N31Y, L79V, E80Q, A82D, S97T
notes: as for B1
B5: Antibody Ab11 (antibody, human IgG1, kappa, N297A, V domains shown)
VH: QSLEESGGRLVTPGGSLTLTCTVSGIDVTNYYMQWVRQAPGKGLEWIGVIGVNGKRYYASWAKGRFTISKTSSTTVDLKMTSLTTEDTATYFCARGDIWGPGTLVTVSS
VL: B1 VL with A12P, Q23R, D30Y, L79V, E80Q, A82D, S97N
notes: as for B1
B6: Antibody Ab2 (antibody, human IgG1, kappa, N297A)
heavy: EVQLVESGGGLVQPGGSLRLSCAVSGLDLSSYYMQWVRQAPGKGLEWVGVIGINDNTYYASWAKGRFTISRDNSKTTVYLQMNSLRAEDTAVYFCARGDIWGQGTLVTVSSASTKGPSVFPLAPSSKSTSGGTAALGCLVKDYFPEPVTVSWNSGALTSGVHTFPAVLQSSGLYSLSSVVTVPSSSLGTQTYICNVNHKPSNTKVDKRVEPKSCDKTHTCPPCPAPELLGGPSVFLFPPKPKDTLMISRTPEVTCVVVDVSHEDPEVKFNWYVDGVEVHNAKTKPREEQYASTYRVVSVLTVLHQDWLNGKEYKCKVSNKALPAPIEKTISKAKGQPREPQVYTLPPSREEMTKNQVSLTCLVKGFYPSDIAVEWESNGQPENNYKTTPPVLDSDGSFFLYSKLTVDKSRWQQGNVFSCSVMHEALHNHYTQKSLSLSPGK
light: QVLTQSPSSLSASVGDRVTINCQASQSVYDNNYLAWYQQKPGKVPKQLIYSTSTLASGVPSRFSGSGSGTDFTLTISSLQPEDVATYYCLGSYDCSSGDCFVFGGGTKVEIKRTVAAPSVFIFPPSDEQLKSGTASVVCLLNNFYPREAKVQWKVDNALQSGNSQESVTEQDSKDSTYSLSSTLTLSKADYEKHKVYACEVTHQGLSSPVTKSFNRGEC
notes: Humanized, full length, human gamma-1 and kappa constant regions
B7: Antibody Ab6 (antibody, human IgG1, kappa, N297A)
heavy: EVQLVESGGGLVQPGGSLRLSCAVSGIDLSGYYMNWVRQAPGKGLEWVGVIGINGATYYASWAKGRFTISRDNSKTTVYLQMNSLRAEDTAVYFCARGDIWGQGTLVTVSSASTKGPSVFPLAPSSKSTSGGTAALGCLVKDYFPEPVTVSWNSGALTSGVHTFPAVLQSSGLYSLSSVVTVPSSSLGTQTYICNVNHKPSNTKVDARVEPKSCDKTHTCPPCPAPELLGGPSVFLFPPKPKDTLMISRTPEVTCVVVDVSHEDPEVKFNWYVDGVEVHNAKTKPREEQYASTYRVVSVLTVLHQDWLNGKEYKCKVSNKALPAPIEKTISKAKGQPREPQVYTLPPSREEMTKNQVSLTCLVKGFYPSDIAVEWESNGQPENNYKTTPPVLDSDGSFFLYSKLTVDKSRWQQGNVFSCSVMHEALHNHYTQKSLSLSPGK
light: B6 light with D30H, N32T, S51D, T52A, S96T, S97N
notes: Humanized, full length; same variable regions as Ab5, heavy constant region differs (KVDARV instead of KVDKRV)
B8: Antibody Ab12 (antibody, human IgG1, kappa, N297A, V domains shown)
VH: EVQLVESGGGLVQPGGSLRLSCAVSGIDVTNYYMQWVRQAPGKGLEWVGVIGVNGKRYYASWAKGRFTISRDNSKTTVYLQMNSLRAEDTAVYFCARGDIWGQGTLVTVSS
VL: QVLTQSPSSLSASVGDRVTINCRASQSVYYNNYLAWYQQKPGKVPKQLIYSTSTLASGVPSRFSGSGSGTDFTLTISSLQPEDVATYYCLGSYDCSNGDCFVFGGGTKVEIKR
notes: as for B6
B9: Antibody Ab10 (antibody, human IgG1, kappa, N297A)
heavy: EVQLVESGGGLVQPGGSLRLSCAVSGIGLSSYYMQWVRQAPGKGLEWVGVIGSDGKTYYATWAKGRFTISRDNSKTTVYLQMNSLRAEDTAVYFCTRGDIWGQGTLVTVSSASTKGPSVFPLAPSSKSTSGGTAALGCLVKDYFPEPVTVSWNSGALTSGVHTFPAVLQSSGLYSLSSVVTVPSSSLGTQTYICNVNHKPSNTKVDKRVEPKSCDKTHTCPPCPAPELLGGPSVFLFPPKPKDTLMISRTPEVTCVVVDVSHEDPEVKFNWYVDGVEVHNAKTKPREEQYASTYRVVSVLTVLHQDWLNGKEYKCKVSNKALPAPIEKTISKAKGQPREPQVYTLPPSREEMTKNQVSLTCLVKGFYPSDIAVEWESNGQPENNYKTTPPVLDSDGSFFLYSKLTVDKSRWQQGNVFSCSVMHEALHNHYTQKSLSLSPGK
light: B6 light with S27N, D30N, S97R
notes: as for B6
B10: Antibody Ab5 (antibody, human IgG1, kappa, N297A)
heavy: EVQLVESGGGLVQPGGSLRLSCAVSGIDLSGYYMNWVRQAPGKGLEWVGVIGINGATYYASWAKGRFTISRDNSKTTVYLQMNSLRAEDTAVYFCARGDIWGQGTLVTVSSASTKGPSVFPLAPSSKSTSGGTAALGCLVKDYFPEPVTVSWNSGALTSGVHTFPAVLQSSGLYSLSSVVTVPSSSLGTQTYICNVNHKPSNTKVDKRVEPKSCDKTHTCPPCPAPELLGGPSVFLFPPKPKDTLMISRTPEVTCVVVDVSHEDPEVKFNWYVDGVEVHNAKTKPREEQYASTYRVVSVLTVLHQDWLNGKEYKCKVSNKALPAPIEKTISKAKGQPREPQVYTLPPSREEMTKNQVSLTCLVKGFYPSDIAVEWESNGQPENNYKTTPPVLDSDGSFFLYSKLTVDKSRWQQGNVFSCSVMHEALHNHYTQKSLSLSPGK
light: B6 light with D30H, N32T, S51D, T52A, S96T, S97N
notes: as for B6
B11: Antibody Ab3 (antibody, human IgG1, kappa, N297A)
heavy: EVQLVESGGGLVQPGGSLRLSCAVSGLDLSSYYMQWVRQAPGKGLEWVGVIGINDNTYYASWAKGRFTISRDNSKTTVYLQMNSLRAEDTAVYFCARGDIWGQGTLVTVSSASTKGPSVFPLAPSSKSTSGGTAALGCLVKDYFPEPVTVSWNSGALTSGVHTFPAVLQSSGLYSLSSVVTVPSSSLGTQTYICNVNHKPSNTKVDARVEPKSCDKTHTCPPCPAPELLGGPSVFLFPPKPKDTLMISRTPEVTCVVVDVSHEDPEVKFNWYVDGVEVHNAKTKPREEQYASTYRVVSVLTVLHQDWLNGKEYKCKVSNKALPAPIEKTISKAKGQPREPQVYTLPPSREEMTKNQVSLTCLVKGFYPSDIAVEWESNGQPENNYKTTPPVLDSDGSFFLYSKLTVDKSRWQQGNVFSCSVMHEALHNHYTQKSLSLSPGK
light: B6 light
notes: Humanized, full length; same variable regions as Ab2, heavy constant region differs (KVDARV instead of KVDKRV)
B12: Antibody Ab14 (antibody, human IgG1, kappa, N297A)
heavy: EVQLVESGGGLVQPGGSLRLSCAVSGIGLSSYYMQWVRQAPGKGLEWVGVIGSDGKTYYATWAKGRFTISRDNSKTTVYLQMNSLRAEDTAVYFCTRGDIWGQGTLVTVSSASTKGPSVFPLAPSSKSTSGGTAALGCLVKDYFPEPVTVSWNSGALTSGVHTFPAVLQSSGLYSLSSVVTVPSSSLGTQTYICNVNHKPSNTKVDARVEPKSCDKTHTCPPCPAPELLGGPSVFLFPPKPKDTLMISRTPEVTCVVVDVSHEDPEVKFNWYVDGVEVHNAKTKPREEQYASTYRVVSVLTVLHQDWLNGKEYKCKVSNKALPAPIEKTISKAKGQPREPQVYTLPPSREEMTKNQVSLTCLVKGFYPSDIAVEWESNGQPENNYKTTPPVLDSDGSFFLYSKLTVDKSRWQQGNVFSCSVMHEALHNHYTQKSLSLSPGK
light: B6 light with S27N, D30N, S97R
notes: Humanized, full length; same variable regions as Ab10, heavy constant region differs (KVDARV instead of KVDKRV)
B13: Antibody Ab8 (antibody, human IgG1, kappa, N297A, V domains shown)
VH: B8 VH with V29L, T30S, Y32H, I51V, V53I, K56R, R57T
VL: B8 VL with R23Q, Y30N, N31Y, N97T
notes: as for B6

Biological target: T1, Homo sapiens CGRP-alpha (Calcitonin Gene Related Peptide alpha) (Homo sapiens, C-terminal -NH2 as printed in the sequence (the text says "the N-terminal phenylalanine is amidated"))
T1 construct: Synthetic 37-residue peptide from American Peptides / Bachem; Coated directly on the plate in the recombinant-antibody ELISA; also called human CGRPα; CGRPα
T1 peptide: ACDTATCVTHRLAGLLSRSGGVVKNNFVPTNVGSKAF
Assay: ELISA: CGRPα coated on plate, antibody dilution series, anti-human IgG Fc-peroxidase detection
Method: To characterize recombinant expressed antibodies for their ability to bind to human-CGRPα, antibody-containing solutions were tested by ELISA. All incubations were done at room temperature. Briefly, Immulon IV plagtes (Thermo Scientific) were coated with a CGRPα containing solution ([…] in PBS) for 2 hours. CGRPα-coated plates were then washed three times in wash buffer (PBS, 0.05% Tween-20). The plates were then blocked using a blocking solution (PBS, 0.5% fish skin gelatin, 0.05% Tween-20) for approximately one hour. The blocking solution was then removed and the plates were then incubated with a dilution series of the antibody being tested for approximately one hour. At the end of this incubation, the plate was washed three times with wash buffer and further incubated with a secondary antibody containing solution (Peroxidase conjugated affinipure F(ab′)2 fragment goat anti-human IgG, Fc fragment specific (Jackson Immunoresearch) for approximately 45 minutes and washed three times. At that point a substrate solution (TMB peroxidase substrate, BioFx) and incubated for 3 to 5 minutes in the dark. The reaction was stopped by addition of a HCl containing solution (0.5M) and the plate was read at 450 nm in a plate-reader.

Binding result, binds:
B1
B2
B3
B4
B5
B6
B7
B8
B9
B10
B11
B12
B13
